According to patent US7785835 (QUEENSLAND UNIVERSITY OF TECHNOLOGY, dated 2010):
Each block holds one binder with its values, some of them ahead of it.

Key:
vitronectin [1] = target: T1, vitronectin (UniProt P04004 20-478); assay: [^125I]-IGF-I bound to VN-coated wells (300 ng/well) with 5 ng IGFBP; IGFBP:VN binding read through labelled IGF-I
T1 construct: also called VN

vitronectin [2] = target: T1, vitronectin; assay: [^125I]-IGF-I bound to VN-coated wells with 2 ng of the non-glycosylated IGFBP-3 mutant; IGFBP:VN binding read through labelled IGF-I

T1 sequence (P04004 20-478 limits assumed): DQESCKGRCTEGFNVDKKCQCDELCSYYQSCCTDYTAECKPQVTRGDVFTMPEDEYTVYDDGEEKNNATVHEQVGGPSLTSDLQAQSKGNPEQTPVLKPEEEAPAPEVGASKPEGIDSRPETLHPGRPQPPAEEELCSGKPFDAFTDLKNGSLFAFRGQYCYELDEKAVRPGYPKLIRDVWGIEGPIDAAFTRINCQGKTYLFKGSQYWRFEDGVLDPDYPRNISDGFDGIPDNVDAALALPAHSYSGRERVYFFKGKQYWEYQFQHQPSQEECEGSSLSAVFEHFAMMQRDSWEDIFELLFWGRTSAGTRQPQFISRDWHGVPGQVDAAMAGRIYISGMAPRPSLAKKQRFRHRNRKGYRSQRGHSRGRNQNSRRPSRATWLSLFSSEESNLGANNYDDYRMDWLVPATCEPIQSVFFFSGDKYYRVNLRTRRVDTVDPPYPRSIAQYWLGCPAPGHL

fold increase in binding of labelled IGF-I to VN-coated wells against wells without IGFBP (vitronectin [1]): ~2.8 fold
B1: recombinant IGFBP-2 produced in mammalian cells (other, UniProt P18065 36-325, looked up)
chain: AEVLFRCPPCTPERLAACGPPPVAPPAAVAAVAGGARMPCAELVREPGCGCCSVCARLEGEACGVYTPRCGQGLRCYPHPGSELPLQALVMGEGTCEKRRDAEYGASPEQVADNGDDHSEGGLVENHVDSTMNMLGGGGSAGRKPLKSGMKELAVFREKVTEQHRQMGKGGKHHLGLEEPKKLRPPPARTPCQQELDQVLERISTMRLPDERGPLEHLYSLHIPNCDKHGLYNLKQCKMSLNGQRGECWCVNPNTGKLIQGAPTIRGDPECHLFYNEQQEARGVHTQRMQ

fold increase in binding of labelled IGF-I to VN-coated wells (vitronectin [2]): 20 fold
B2: IGFBP-3 glycosylation mutant (Non-gly IGFBP-3) (other, UniProt P17936 28-291, looked up)
chain: GASSAGLGPVVRCEPCDARALAQCAPPPAVCAELVREPGCGCCLTCALSEGQPCGIYTERCGSGLRCQPSPDEARPLQALLDGRGLCVAASAVSRLRAYLLPAPPAPGAASESEEDRSAGSVESPSVSSTHRVSDPKFHPLHSKIIIIKKGHAKDSQRYKVDYESQSTDTQAFSSESKRETEYGPCRREMEDTLNHLKFLNVLSPRGVHIPNCDKKGFYKKKQCRPSKGRKRGFCWCVDKYGQPLPGYTTKGKEDVHCYSMQSK
modifications: non-glycosylated (glycosylation sites mutated)
notes: they probably count on mature IGFBP-3; also called non-glycosylated IGFBP-3 mutant; mutant IGFBP-3

fold increase in binding of labelled IGF-I to VN-coated wells against wells without IGFBP (vitronectin [1]): ~3.8 fold
B3: recombinant IGFBP-4 produced in mammalian cells (other, UniProt P22692 22-258, looked up)
chain: DEAIHCPPCSEEKLARCRPPVGCEELVREPGCGCCATCALGLGMPCGVYTPRCGSGLRCYPPRGVEKPLHTLMHGQGVCMELAEIEAIQESLQPSDKDEGDHPNNSFSPCSAHDRRCLQKHFAKIRDRSTSGGKMKVNGAPREDARPVPQGSCQSELHRALERLAASQSRTHEDLYIIPIPNCDRNGNFHPKQCHPALDGQRGKCWCVDRKTGVKLPGGLEPKGELDCHQLADSFRE
